Assay results: US20110135657A1 (published 2011)
Residue numbers refer to the chain shown, from its start. Numbers in names are those of the source.

What was measured:
[1] = biological target: T1, soluble human β-Klotho (Biacore, Example 8) (human, UniProt Q86Z14 53-996, limits assumed); assay: Biacore competition binning; test antibody injected over soluble receptor captured on immobilized 24H11, 17D8 or 1A2.1
T1 construct: also called soluble β-Klotho
Excerpt: Soluble human FGFR1c/β-Klotho ECD-Fc complex or β-Klotho was then captured on the immobilized antibody surfaces.

[2] = biological target: human FGF21 receptor (FGF21R): full length human FGFR1c and full length human β-Klotho co-expressed at the … (human, UniProt P11362 22-822; Q86Z14 53-1044); assay: cell-based or functional assay

B1: 37D3 (antibody, human IgG2, kappa, V domains shown)
VH: EVHLVESGGGLAKPGGSLRLSCAASGFTFRNAWMSWVRQAPGKGLEWVGRIKSKTDGGTTDYAAPVKGRFTISRDDSKNTLYLQMNSLKTEDTAEYYCITDRVLSYYAMAVWGQGTTVTVSS
VL: DIVMTQSPLSLPVTPGEPASISCRSSQSLLHSNGYNFLDWYLQKPGQSPQLLIYLGSDRASGVPDRFSGSGSGTEFTLKISRVEAEDVGLYYCMQALQTPCSFGQGTKLEIKR
notes: fully human monoclonal antibody
[1]
  binding result: binds

B2: 16H7 variant, heavy chain E16Q + V24F + I83T (antibody, human IgG2, lambda)
heavy: QVTLKESGPVLVKPTQTLTLTCTFSGFSLNNARMGVSWIRQPPGKALEWLAHIFSNDEKSYSTSLKSRLTISKDTSKSQVVLTMTNMDPVDTATYYCARSVVTGGYYYDGMDVWGQGTTVTVSSASTKGPSVFPLAPCSRSTSESTAALGCLVKDYFPEPVTVSWNSGALTSGVHTFPAVLQSSGLYSLSSVVTVPSSNFGTQTYTCNVDHKPSNTKVDKTVERKCCVECPPCPAPPVAGPSVFLFPPKPKDTLMISRTPEVTCVVVDVSHEDPEVQFNWYVDGVEVHNAKTKPREEQFNSTFRVVSVLTVVHQDWLNGKEYKCKVSNKGLPAPIEKTISKTKGQPREPQVYTLPPSREEMTKNQVSLTCLVKGFYPSDIAVEWESNGQPENNYKTTPPMLDSDGSFFLYSKLTVDKSRWQQGNVFSCSVMHEALHNHYTQKSLSLSPGK
light: not shown
[2]
  EC50 (nM), Erk-phosphorylation, human adipocyte assay: 0.38 nM

B3: 16H7 variant, heavy chain E16Q + V24F + I83T + T119L (antibody, human IgG2, lambda)
heavy: B2 heavy with T119L
light: not shown
[2]
  EC50 (nM), Erk-phosphorylation, human adipocyte assay: 0.36 nM

B4: 16H7 variant, heavy chain I83T (antibody, human IgG2, lambda, V domains shown)
VH: not shown
VL: SYVLTQPPSVSVAPGQTARITCGGNNIGSESVHWYQQKPGQAPVLVVYDDSDRPSGIPERFSGSNSGNTATLTISRVEAGDEADYYCQVWDGNSDHVVFGGGTKLTVLG
[2]
  EC50 (nM), Erk-phosphorylation, human adipocyte assay: 0.73 nM

B5: 16H7 variant, heavy chain I83K (antibody, human IgG2, lambda, V domains shown)
VH: not shown
VL: B4 VL
[2]
  EC50 (nM), Erk-phosphorylation, human adipocyte assay: 0.39 nM

B6: 16H7 variant, heavy chain D88R + P89A + V90E (antibody, human IgG2, lambda, V domains shown)
VH: QVTLKESGPVLVKPTETLTLTCTVSGFSLNNARMGVSWIRQPPGKALEWLAHIFSNDEKSYSTSLKSRLTISKDTSKSQVVLIMTNMRAEDTATYYCARSVVTGGYYYDGMDVWGQGTTVTVSS
VL: B4 VL
[2]
  EC50 (nM), Erk-phosphorylation, human adipocyte assay: 0.35 nM

B7: 16H7 variant, heavy chain V24F (antibody, human IgG2, lambda, V domains shown)
VH: not shown
VL: B4 VL
[2]
  EC50 (nM), Erk-phosphorylation, human adipocyte assay: 0.75 nM

B8: 16H7 variant, heavy chain D88R + P89A + V90E + S100I (antibody, human IgG2, lambda, V domains shown)
VH: B6 VH with S100I
VL: B4 VL
[2]
  EC50 (nM), Erk-phosphorylation, human adipocyte assay: 0.14 nM

B9: 22H5 Heavy Chain, Insertion of Y107 (SEQ ID NO 405), as printed in Table 7 (antibody, human IgG2, lambda, V domains shown)
VH: QVTLKESGPVLVKPTETLTLTCTVSGFSLNNARMGVSWIRQPPGKALEWLAHIFSNDEKSYSTSLKSRLTISKDTSKSQVVLIMTNMDPVDTATYYCARSVVTGGYYYYDGMDVWGQGTTVTVSS
VL: B4 VL with E30Q, G92N, N93T
[2]
  EC50 (nM), Erk-phosphorylation, human adipocyte assay: 0.51 nM

B10: 16H7 variant, heavy chain Deletion of Y107 (antibody, human IgG2, lambda, V domains shown)
VH: QVTLKESGPVLVKPTETLTLTCTVSGFSLNNARMGVSWIRQPPGKALEWLAHIFSNDEKSYSTSLKSRLTISKDTSKSQVVLIMTNMDPVDTATYYCARSVVTGGYYDGMDVWGQGTTVTVSS
VL: B4 VL
[2]
  EC50 (nM), Erk-phosphorylation, human adipocyte assay: 1.04 nM

B11: 16H7 variant, heavy chain E16Q + V24F + I83T + S100I + T119L (antibody, human IgG2, lambda, V domains shown)
VH: B6 VH with E16Q, V24F, I83T, R88D, A89P, E90V, S100I, T119L
VL: B4 VL
[2]
  EC50 (nM), Erk-phosphorylation, human adipocyte assay: 0.24 nM

B12: 16H7 variant, light chain D49A + D91A (antibody, human IgG2, lambda, V domains shown)
VH: not shown
VL: B4 VL with D49A, D91A
[2]
  EC50 (nM), Erk-phosphorylation, human adipocyte assay: 1.4 nM

B13: 16H7 variant, heavy chain S100I (antibody, human IgG2, lambda, V domains shown)
VH: not shown
VL: B4 VL
[2]
  EC50 (nM), Erk-phosphorylation, human adipocyte assay: 0.17 nM

B14: 17C3 (antibody, human IgG2, lambda, V domains shown)
VH: QVTLKESGPVLVKPTETLTLTCTVSGFSLSNARMGVSWIRQPPGKALEWLAHIFSNDEKSYSTSLKSRLTISKDTSKSQVVLTMTNMDPVDTATYYCARILLLGAYYYYGMDVWGQGTTVTVSS
VL: B4 VL with E30Q, G92S, N93S
notes: fully human monoclonal antibody from XenoMouse hybridoma
[1]
  binding result: binds

B15: 16H7 variant, light chain D49Y (antibody, human IgG2, lambda, V domains shown)
VH: not shown
VL: B4 VL with D49Y
[2]
  EC50 (nM), Erk-phosphorylation, human adipocyte assay: 0.6 nM

B16: 16H7 variant, heavy chain D109S (antibody, human IgG2, lambda, V domains shown)
VH: not shown
VL: B4 VL
[2]
  EC50 (nM), Erk-phosphorylation, human adipocyte assay: 0.31 nM

B17: 46D11 (antibody, human IgG2, kappa, V domains shown)
VH: B9 VH with S7A, N30S, S37N, I83T, S100V, V101R, V102I, T103A, G105D, D110Y
VL: DIQMTQSPSSVSASVGDRVTITCRASQGISIWLAWYQQKPGKAPKLLIYAASSLQSGVPSRFSGSGSGTDFTLTISSLQPEDFATYYCQQANDFPITFGQGTRLEIKR
notes: fully human monoclonal antibody; full chains H13/L13
[1]
  binding result: binds

B18: 40D2 (antibody, human IgG2, kappa, V domains shown)
VH: QVQLQESGPGLVKPSQTLSLTCTVSGGSISSGGYNWSWIRQHPGKGLEWIGNIYYSGSTYYNPSLKSRVTISVDTSKNQFSLKLRSVTAADTAVYYCARENIVVIPAAIFAGWFDPWGQGTLVTVSS
VL: DFVMTQTPLSLSVTPGQPASISCKSSQSLLQSDGKTYLYWYLQKPGQPPHLLIYEVSNRFSGVPDRFSGSGSGTDFTLKISRVEAEDVGVYYCMQSIQLPRTFGQGTKVEIKR
notes: as for B1
[1]
  binding result: binds

B19: 18G1 (antibody, human IgG2, kappa, V domains shown)
VH: EVQLLESGGGLVQPGGSLRLSCAASRFTFSTYAMSWVRQAPGKGLEWVSGISGSGVSTHYADSVKGRFTISRDNSKNTLYLQMNSLRAEDTAVYYCAKSLIVVIVYALDHWGQGTLVTVSS
VL: EIVLTQSPGTLSLSPGERATLSCRASQNFDSSYLAWYQQKPGQAPRLLIYGTSSRATGIPDRFSGIGSGTDFTLTINRLEPEDFAMYYCQQYGGSPLTFGGGTEVEIKR
notes: fully human monoclonal antibody; full chains H5/L4
[1]
  binding result: binds
